Results on two molecules are retold here after patent US20150110792A1 (Biogen, published 2015).

The target in assay [1] is T1, human TIM-1-Fc (extracellular domain of human TIM-1, residues 1-290, attached to the Fc portion of human IgG1) (human, UniProt Q96D42 21-290).
T1 construct: also called TIM-1-Ig; human TIM1-Ig; not shown: Fc portion of human IgG1
T1 sequence: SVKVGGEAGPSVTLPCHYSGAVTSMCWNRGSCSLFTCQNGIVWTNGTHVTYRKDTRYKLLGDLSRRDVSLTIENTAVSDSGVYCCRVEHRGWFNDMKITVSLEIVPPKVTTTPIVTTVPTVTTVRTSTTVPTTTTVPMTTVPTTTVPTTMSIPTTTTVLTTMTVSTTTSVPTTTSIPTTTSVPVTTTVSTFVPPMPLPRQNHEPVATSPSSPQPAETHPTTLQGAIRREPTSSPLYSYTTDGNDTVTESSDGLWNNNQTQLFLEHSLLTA
The assay is described as follows: ELISA, plates coated with human TIM-1-Fc. The protocol:
(§1) In the second assay, an ELISA format was used to measure the relative affinity of three anti-TIM-1 monoclonal antibodies for human TIM-1. Titration curves were derived for each antibody and EC50 values were calculated from the curves. Briefly, ELISA plates (Corning Costar) were coated with 0.2 μg/ml human TIM-1-Fc overnight at 4° C. and then blocked for 1 hour at 22° C. with PBS/0.5% casein. Plates were thoroughly washed with PBS/0.1% Tween-20. Anti-human TIM-1 monoclonal antibodies were added across a range of concentrations starting at 10 μg/ml and using 1:3 dilutions, all in PBS/0.5% casein, and allowed to incubate for 1 hour at 22° C. The plates were washed again, and then a 1:1000 dilution of HRP-conjugated goat anti-mouse IgG (H+L; Jackson Immunoresearch Laboratories) was added in PBS/0.5% casein for an additional hour at 22° C. After a final wash, the plates were developed using substrate solution mix (R&D Systems) and stopped using 2N H2SO4. Plates were read at 450 nm using a microplate reader and analyzed using SoftMax Pro (Molecular Devices). Relative EC50 values were determined from the binding curves.
In general terms: ELISA stands for enzyme-linked immunosorbent assay.

The target of assay [2] is T1, human TIM-1-Fc (extracellular domain of …). The assay is described as follows: ELISA-2, plates coated with 0.2 µg/ml human TIM-1-Fc. The protocol:
as §1
(§2) The cynomolgus monkey TIM-1 extracellular domain was expressed as an Fc fusion protein, purified, and used in the ELISA format described above for binding monoclonal antibodies to the human TIM-1 protein. […]

In assay [3] the target is T2, cynomolgus monkey TIM-1-Fc (cynomolgus monkey TIM-1 extracellular domain expressed as an Fc fusion protein) (Cynomolgus monkey (Macaca fascicularis)).
T2 construct: also called cyno.TIM1; not shown: Fc part
T2 chain: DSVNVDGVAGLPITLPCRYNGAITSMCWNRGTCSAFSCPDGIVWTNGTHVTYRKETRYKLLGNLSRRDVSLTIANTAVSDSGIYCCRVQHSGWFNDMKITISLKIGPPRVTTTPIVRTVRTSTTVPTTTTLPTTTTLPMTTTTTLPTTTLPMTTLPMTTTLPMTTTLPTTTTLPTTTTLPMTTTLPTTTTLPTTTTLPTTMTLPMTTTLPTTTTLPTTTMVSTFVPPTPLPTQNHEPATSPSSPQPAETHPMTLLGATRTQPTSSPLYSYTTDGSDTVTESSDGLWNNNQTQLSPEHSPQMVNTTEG
The assay is described as follows: ELISA-1, plates coated with 2 µg/ml cynomolgus monkey TIM-1-Fc. The protocol:
as §1, §2

Assay [4] deals with T1, human TIM-1-Fc (extracellular domain of …). Kind of assay: SPR (Biacore), human TIM-1-Fc. Background: SPR reads the build-up and loss of mass on a sensor chip optically.
The target of assay [5] is T2, cynomolgus monkey TIM-1-Fc (cynomolgus …). The assay is described as follows: ELISA-2, plates coated with 0.2 µg/ml cynomolgus monkey TIM-1-Fc. The protocol:
as §1, §2

Assay [6] deals with T1, human TIM-1-Fc (extracellular domain of …). Kind of assay: ELISA-1, plates coated with 2 µg/ml human TIM-1-Fc. The protocol: as §1, with “Briefly, ELISA plates (Corning Costar) were coated with 0.2 μg/ml human TIM-1-Fc overnight at 4° C. and then blocked for 1 hour at 22° C. with PBS/0.5% casein.” left out
The cynomolgus monkey TIM-1 extracellular domain was expressed as an Fc fusion protein, purified, and used in the ELISA format described above for binding monoclonal antibodies to the human TIM-1 protein. […] The resulting titration curves were used to derive a relative EC50 for anti-human TIM-1 monoclonal antibody binding to human TIM-1 and cynomolgus monkey TIM-1 (Table 2, ELISA-2).

In assay [7] the target is T3, human TIM-1 expressed on cells (human, UniProt Q96D42 21-364).
T3 construct: Full-length human TIM-1 on transfected (HEK 293T, 293E, JUN2 Jurkat) or constitutively expressing (769-P) cells; also called HAVCR1; KIM-1
T3 sequence: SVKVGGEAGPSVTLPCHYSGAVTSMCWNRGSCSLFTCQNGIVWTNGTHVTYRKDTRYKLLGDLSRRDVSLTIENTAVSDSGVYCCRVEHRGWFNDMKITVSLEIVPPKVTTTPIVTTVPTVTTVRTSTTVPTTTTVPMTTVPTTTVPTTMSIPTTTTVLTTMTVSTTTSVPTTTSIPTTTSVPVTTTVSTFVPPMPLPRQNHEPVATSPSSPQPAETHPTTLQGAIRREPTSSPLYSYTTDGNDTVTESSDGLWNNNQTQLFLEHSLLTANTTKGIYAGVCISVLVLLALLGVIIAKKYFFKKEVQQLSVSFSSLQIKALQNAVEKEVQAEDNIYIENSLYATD
Kind of assay: flow cytometry on JUN2 cells (Jurkat stably expressing human TIM-1), PE anti-mouse IgG, MFI against µg/ml of mAb. The protocol: (§3) Three assays were used to assess the affinity of ARD5 for human TIM-1. In the first assay, ARD5 binding to cells expressing TIM-1 was measured by Flow Cytometry. Two cell lines were used. JUN2 cells are a stable human Jurkat TIM-1-expressing cell line (described in Binne et al. (2007) J. Immunol. 178: 4342-50). The human kidney cell line 769-P also constitutively expresses TIM-1. JUN2 cells and 769-P cells were cultured in RPMI/10% FBS. JUN2 cells grow in suspension; 769-P cells are adherent and were gently removed with Accutase (Invitrogen). Cells were resuspended in PBS/5% BSA and incubated with monoclonal antibodies for 1 hour on ice. Following several washes with PBS/5% BSA, the cells were resuspended in the same buffer containing PE-coupled donkey anti-mouse IgG secondary antibody (Jackson Immunoresearch). Following an additional wash in PBS/5% BSA and a final wash in PBS, cell were resuspended in 100 ul PBS and fixed in an equal volume of 2% paraformaldehyde. Monoclonal antibody binding was analyzed using a flow cytometer (FACScan).

The target of assay [8] is T2, cynomolgus monkey TIM-1-Fc (cynomolgus …). Kind of assay: SPR (Biacore), cynomolgus monkey TIM-1-Fc.
Assay [9] has as its target T3, human TIM-1 expressed on cells. Kind of assay: flow cytometry on 769-P cells (constitutively expressing human TIM-1), PE anti-mouse IgG, MFI against µg/ml of mAb. As to the method:
as §3
For orientation: A flow cytometer gives signals particle by particle.

Assay [10] deals with T4, Cynomolgus monkey TIM-1 expressed on transfected 293E cells (Cynomolgus monkey (Macaca fascicularis), UniProt O46598 25-478 (Chlorocebus aethiops entry)).
T4 construct: Full-length cDNA (pEAG2184) transfected into 293E cells; also called Cynomolgus TIM-1
T4 chain: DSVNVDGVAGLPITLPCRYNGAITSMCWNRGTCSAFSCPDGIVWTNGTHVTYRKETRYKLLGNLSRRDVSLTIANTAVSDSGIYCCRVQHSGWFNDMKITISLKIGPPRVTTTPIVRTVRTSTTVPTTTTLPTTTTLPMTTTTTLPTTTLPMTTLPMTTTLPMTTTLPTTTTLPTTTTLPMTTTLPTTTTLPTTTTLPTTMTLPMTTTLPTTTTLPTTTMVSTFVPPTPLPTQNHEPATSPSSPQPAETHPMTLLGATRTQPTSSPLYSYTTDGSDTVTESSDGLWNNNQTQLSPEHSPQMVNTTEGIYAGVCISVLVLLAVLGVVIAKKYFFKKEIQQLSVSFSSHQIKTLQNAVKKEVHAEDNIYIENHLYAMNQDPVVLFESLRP
Kind of assay: flow cytometry on 293E cells transfected with Cynomolgus monkey TIM-1 cDNA, gated on EGFP-positive cells, PE anti-mouse IgG. The protocol: In a second series of experiments, 293E cells transfected with human TIM-1 cDNA or Cynomolgus monkey TIM-1 cDNA were analyzed for anti-human TIM-1 monoclonal antibody binding by flow cytometry. The full-length human and cynomolgus monkey TIM1 cDNAs were engineered to remove extraneous 5′ and 3′ UTRs and to add an identical optimized Kozak sequence, then were subcloned into pNE001, a fully sequence-confirmed pUC-based EBV expression vector derived from the Invitrogen expression vector pCEP4, in which heterologous gene expression is controlled by a CMV-IE promoter and an SV40 polyadenylation signal, but lacking the EBNA gene and the hygromycin resistance gene. TIM-1 expression vectors (human: pEAG2182, and cynomolgus monkey: pEAG2184) were co-transfected into 293E cells at a 1:1 molar ratio with an EBV expression vector carrying an EGFP reporter (pEAG1458). Cells were transfected using Qiagen's Effectene reagent, following the manufacturer's recommended protocol. Cells were used in FACS at 2 days post-transfection, staining with a dilution titration series of murine anti-human TIM1 monoclonal antibodies, (detected with PE-conjugated goat anti-mouse IgG secondary antibody) and gating on green EGFP-positive living cells. […]

Assay [11] deals with T1, human TIM-1-Fc (extracellular domain of …). Kind of assay: SPR (Biacore), monovalent binding to immobilized human TIM-1.

B1: monoclonal antibody ARD5 (antibody, mouse IgG1, kappa, V domains shown)
VH: QVQLQQSGAELVRPGTSVKVSCKASGYVFTNYWIEWIKQRPGQGLEWIGVMNPGSGETTYNEKFKGKATLTADKSSSTAYMQLSSLTSVDSAVYFCARDHDRDYYAMDYWGQGTSVTVSS
VL: EIQMTQSPSSMSASLGDTITITCQATQDIFKNLNWYQQKPGKPPSLLIYYATELAEGVPSRFSGSGSGSDYSLTISNLESEDFAAYYCLQFFEFPFTFGSGTKLEMKR
notes: Murine IgG1/kappa hybridoma antibody (ATCC PTA-12195); also called ARD5.12; muARD5
For orientation: EC50 means the concentration at which the effect is half-maximal. By Kd is commonly meant the constant that tells how readily two partners part at equilibrium. For orientation: EC50 (read off the curve) means the concentration at which the effect is half-maximal. With B1, the EC50 in [1] was 0.78 ng/mL; in [2], 0.043 µg/mL; in [3], 2 ng/mL; in [5], 0.013 µg/mL; in [6], 1 ng/mL. Moreover, in [1], the “relative EC50 against A6G2 and A3H1 (percent greater)” value turned out to be 80.5%. Also, the equilibrium dissociation constant (Kd) in [4] was no more than 0.6 nM; in assay [8], less than 50 nM. For the same molecule, the “EC50 (read off the curve)” value in [7] was roughly 0.1 µg/mL; in assay [9] it was roughly 0.2 µg/mL. Further, the binding result in assay [10] was “binds”.

B2: FAb fragment of ARD5 (Fab, V domains shown)
VH: B1 VH
VL: B1 VL
notes: Fab purified from the ARD5 monoclonal antibody; also called FAb of ARD5; not shown: murine IgG1 CH1 and part of the hinge
B2 returned a Kd in assay [11] of 3 nM.
